# Experimental data from the supplement of paper PMC10567573.
# B1: TRIM15 (parent)
# chain: LLARLRELEQQIWKERDEYITKVS
# Variants of: B1
# Experiment: protein stability index of a GFP-peptide fusion (GPS, HEK-293T) (PSI 1-6); higher = more stable
# Conditions: c terminus: a fixed tail appended
# 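Note: lentivirally expressed fusions sorted by FACS into six bins by GFP to DsRed ratio, PSI derived from sequencing read proportions per bin multiplied by bin number.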
row,Variant,protein stability index
1,E7T,3.56
2,E7V,3.16
3,T21P,2.59
4,T21I,2.45
5,T21N,1.7
6,T21Q,2.41
7,T21D,1.32
8,T21W,2.63
9,T21Y,2.02
10,T21L,2.39
11,T21H,1.49
12,T21A,2.07
13,T21K,1.48
14,E15L,2.15
15,E15D,2.08
16,E15N,1
17,E15R,1.05
18,E15Q,1.47
19,E15G,1.18
20,E15I,1.42
21,E15A,1.28
22,E15F,2.15
23,W13Y,1.51
24,W13P,1.81

row,Variant,protein stability index
1,W13H,1.37
2,W13C,2.68
3,W13I,1.32
4,W13T,1.69
5,W13G,2.31
6,W13L,1.71
7,W13F,2.83
8,W13A,1.52
9,W13V,1.96
10,W13E,2.03
11,W13K,2.24
12,W13S,1.68
13,W13Q,2.46
14,W13R,1.77
15,A3F,2.9
16,A3T,2.2
17,A3C,2.64
18,A3L,2
19,A3Q,1.9
20,A3P,1.99
21,A3H,1.46
22,A3G,1.44
23,A3D,2.18
24,A3V,2.49

row,Variant,protein stability index
1,A3M,2.34
2,A3E,3.27
3,A3S,1.69
4,D17P,1.86
5,D17Q,3.32
6,D17R,2.14
7,D17L,1.04
8,D17T,2.08
9,D17N,1
10,D17Y,3.07
11,D17E,1.78
12,I12S,1.35
13,I12Q,2.34
14,I12Y,2.13
15,I12A,1.88
16,I12R,2.21
17,I12D,2.75
18,I12N,1.24
19,I12C,1.42
20,I12W,1.43
21,I12F,2.15
22,I12L,1.67
23,I12E,2.38
24,I12V,1.65

row,Variant,protein stability index
1,I12M,3.6
2,I12H,1.8
3,I12P,1.77
4,K22F,1.72
5,K22D,1.97
6,K22C,1.94
7,K22G,2.25
8,K22A,2.38
9,I20K,2.1
10,I20Q,2.09
11,I20M,1.71
12,I20E,4.11
13,I20S,2.18
14,I20D,2.11
15,I20N,1.63
16,I20P,1.6
17,I20C,1.08
18,I20Y,3.1
19,I20H,2.12
20,I20G,2.17
21,I20F,3.15
22,I20R,2.91
23,I20A,1.3
24,I20L,1.33

row,Variant,protein stability index
1,L8V,1.69
2,L8S,1.75
3,L8T,2.74
4,L8H,2.12
5,L8G,2.9
6,L8R,1.44
7,L8Y,2.22
8,L8C,1.49
9,L8N,2.03
10,L8I,2.51
11,L8E,2.24
12,L8D,2.48
13,L8W,1.62
14,L8K,3.04
15,L8P,2.55
16,L8A,1.14
17,R4G,2.56
18,R4M,2.36
19,R4F,1.73
20,R4P,1.6
21,R4N,1.58
22,R4Q,1.74
23,R4Y,1.92
24,R4S,1.78

row,Variant,protein stability index
1,R4W,2.67
2,R16Q,1.58
3,R16E,2
4,R16L,3.68
5,R16A,1.78
6,R16K,1.92
7,R16Y,2.13
8,R16M,1.61
9,R16H,1
10,R16C,2
11,L5F,2.17
12,L5R,2.28
13,L5V,2.95
14,L5Q,2.64
15,L5A,1.91
16,L5P,2.65
17,L5M,1.83
18,L5N,2.43
19,L5Y,1.77
20,L5W,1.34
21,L5D,2.44
22,L5E,2.96
23,L5H,2.72
24,L5G,2.6

row,Variant,protein stability index
1,L5S,3.44
2,L5T,2.44
3,L5I,2.98
4,Y19W,2.07
5,Y19N,1.91
6,Y19P,1.55
7,Y19L,1.98
8,Y19T,1.67
9,Y19E,1.39
10,Y19D,2.12
11,Y19S,1.71
12,Y19M,2.21
13,Y19Q,2.13
14,R6C,1.8
15,R6S,2.56
16,R6Q,1.44
17,R6D,1.79
18,R6T,1.76
19,R6H,1.65
20,R6K,2.13
21,R6V,3.95
22,R6P,2.44
23,R6E,1.82
